Measurements as given in patent US20170342349A1, “STABILIZED ENZYME COMPOSITIONS” (NOVOZYMES A/S, priority 2014, published 2017).

What was measured:
TY145 (SEQ ID NO 3) = test: Ki fitted from Suc-AAPF-pNA activity at 8 inhibitor concentrations in Model B detergent; IF relative to SEQ ID NO 3 (the reference itself)
[1] = biological target: TY145 (SEQ ID NO 3) variant K146R + S173P + S175P + F180Y; test: Ki fitted from Suc-AAPF-pNA activity in Model B detergent; IF relative to SEQ ID NO 3 comprising S173P + S175P + F180Y
[2] = biological target: TY145 (SEQ ID NO 3) variant S173P + S175P + F180Y + L184D; test: as above
[3] = biological target: TY145 (SEQ ID NO 3) variant I150A + S173P + S175P + F180Y; test: as above
[4] = biological target: TY145 (SEQ ID NO 3) variant Q70Y + S173P + S175P + F180Y; test: as above
TY145 (SEQ ID NO 3) variant Q70Y + S173P + S175P + F180Y, sequence (chain, as listed by the source Q70Y S173P S175P F180Y Q70Y S173P S175P F180Y limits assumed): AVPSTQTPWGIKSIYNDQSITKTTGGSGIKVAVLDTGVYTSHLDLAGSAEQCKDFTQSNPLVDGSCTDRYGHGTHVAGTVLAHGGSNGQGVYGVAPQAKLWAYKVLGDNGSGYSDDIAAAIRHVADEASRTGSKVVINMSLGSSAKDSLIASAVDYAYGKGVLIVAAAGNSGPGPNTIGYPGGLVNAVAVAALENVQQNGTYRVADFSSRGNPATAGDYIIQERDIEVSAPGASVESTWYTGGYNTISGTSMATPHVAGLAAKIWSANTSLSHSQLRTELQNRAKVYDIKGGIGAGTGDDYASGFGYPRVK

[5] = biological target: TY145 (SEQ ID NO 3) variant S173P + S175P + I178Y + F180Y; test: as above
[6] = biological target: TY145 (SEQ ID NO 3) variant S173P + S175P + F180Y + L184W; test: as above
[7] = biological target: TY145 (SEQ ID NO 3) variant S114F + S173P + S175P + F180Y; test: as above
[8] = biological target: TY145 (SEQ ID NO 3) variant S114Q + S173P + S175P + F180Y; test: as above
[9] = biological target: TY145 (SEQ ID NO 3) variant S173P + S175P + F180Y + G182S; test: as above
[10] = biological target: TY145 (SEQ ID NO 3) variant S173P + S175P + F180Y + L184F; test: as above
[11] = biological target: Protease P (SEQ ID NO 5) variant M103A; test: Ki fitted from Suc-AAPF-pNA activity in Model B detergent; IF relative to SEQ ID NO 5
[12] = biological target: Protease P (SEQ ID NO 5) variant Q64F; test: as above
[13] = biological target: Protease P (SEQ ID NO 5) variant G128P; test: as above
[14] = biological target: Protease P (SEQ ID NO 5) variant M103S; test: as above
[15] = biological target: Protease P (SEQ ID NO 5) variant G127S + G128P + G129S + Y130P + D131S + M134L; test: as above
[16] = biological target: Protease P (SEQ ID NO 5) variant Q64N; test: as above
[17] = biological target: TY145 (SEQ ID NO 3) variant Q70N + S173P + S175P; test: Ki fitted from Suc-AAPF-pNA activity in Model B detergent; IF relative to SEQ ID NO 3 comprising S173P + S175P
TY145 (SEQ ID NO 3) variant Q70N + S173P + S175P, sequence (chain, as listed by the source Q70N S173P S175P Q70N S173P S175P limits assumed): as the sequence (chain, as listed by the source Q70Y S173P S175P F180Y Q70Y S173P S175P F180Y limits assumed) above, with Y70N, Y180F counted along it

[18] = biological target: TY145 (SEQ ID NO 3) variant S114V + S173P + S175P; test: as above
TY145 (SEQ ID NO 3) variant S114V + S173P + S175P, sequence (chain, as listed by the source S114V S173P S175P S114V S173P S175P limits assumed): as the sequence (chain, as listed by the source Q70Y S173P S175P F180Y Q70Y S173P S175P F180Y limits assumed) above, with Y70Q, S114V, Y180F counted along it

[19] = biological target: TY145 (SEQ ID NO 3) variant S114V + I150L + S173P + S175P; test: as above
TY145 (SEQ ID NO 3) variant S114V + I150L + S173P + S175P, sequence (chain, as listed by the source S114V I150L S173P S175P S114V I150L S173P S175P limits assumed): as the sequence (chain, as listed by the source Q70Y S173P S175P F180Y Q70Y S173P S175P F180Y limits assumed) above, with Y70Q, S114V, I150L, Y180F counted along it

[20] = biological target: TY145 (SEQ ID NO 3) variant I150L + S173P + S175P; test: as above
TY145 (SEQ ID NO 3) variant I150L + S173P + S175P, sequence (chain, as listed by the source I150L S173P S175P I150L S173P S175P limits assumed): as the sequence (chain, as listed by the source Q70Y S173P S175P F180Y Q70Y S173P S175P F180Y limits assumed) above, with Y70Q, I150L, Y180F counted along it

[21] = biological target: Protease C (SEQ ID NO 6) (Lederbergia lenta (Bacillus lentus)) (UniProt P29600); test: Ki fitted from Suc-AAPF-pNA activity in Model B detergent; IF relative to SEQ ID NO 6 (the reference itself)

TY145 (SEQ ID NO 3), sequence (chain, as listed by the source limits assumed): as the sequence (chain, as listed by the source Q70Y S173P S175P F180Y Q70Y S173P S175P F180Y limits assumed) above, with Y70Q, P173S, P175S, Y180F counted along it

**Q.** How did the IF (binding constant improvement factor, relative Ki) (TY145 (SEQ ID NO 3)) turn out when “Inhibitor 1: Cbz-Gly-Ala-NHCH(CH2C6H4pOH)C(OH)(SO3Na)-H (peptide)” was run?
**A.** 1

**Q.** What about the IF (binding constant improvement factor, relative Ki) [1] of the same substance?
**A.** 1.31

**Q.** What about the IF (binding constant improvement factor, relative Ki) [2] of the same substance?
**A.** 3.28

**Q.** What about the IF (binding constant improvement factor, relative Ki) [3] of the same substance?
**A.** 2.52

**Q.** What about the IF (binding constant improvement factor, relative Ki) [4] of the same substance?
**A.** 7.44

**Q.** What about the IF (binding constant improvement factor, relative Ki) [5] of the same substance?
**A.** 2.15

**Q.** And the IF (binding constant improvement factor, relative Ki) [6]?
**A.** 2.23

**Q.** What about the IF (binding constant improvement factor, relative Ki) [7] of the same substance?
**A.** 1.41

**Q.** What about the IF (binding constant improvement factor, relative Ki) [8] of the same substance?
**A.** 2.03

**Q.** What about the IF (binding constant improvement factor, relative Ki) [9] of the same substance?
**A.** 1.69

**Q.** And the IF (binding constant improvement factor, relative Ki) [10]?
**A.** 4.28

**Q.** And the IF (binding constant improvement factor, relative Ki) [11]?
**A.** 2.31

**Q.** And the IF (binding constant improvement factor, relative Ki) [12]?
**A.** 3.44

**Q.** And the IF (binding constant improvement factor, relative Ki) [13]?
**A.** 1.19

**Q.** And the IF (binding constant improvement factor, relative Ki) [14]?
**A.** 1.73

**Q.** What about the IF (binding constant improvement factor, relative Ki) [15] of the same substance?
**A.** 1.05

**Q.** What about the IF (binding constant improvement factor, relative Ki) [16] of the same substance?
**A.** 1.38

**Q.** What about the IF (binding constant improvement factor, relative Ki) [17] of the same substance?
**A.** 4.48

**Q.** What about the IF (binding constant improvement factor, relative Ki) [18] of the same substance?
**A.** 1.83

**Q.** What about the IF (binding constant improvement factor, relative Ki) [19] of the same substance?
**A.** 6.14

**Q.** What about the IF (binding constant improvement factor, relative Ki) [20] of the same substance?
**A.** 2.05

**Q.** What about the IF (binding constant improvement factor, relative Ki) [21] of the same substance?
**A.** 1
